In article PMC7553530 one finds response (RU) data, which are given here for four substances.

The assay deals with recombinant human PD-L1 (rhPD-L1) ectodomain (human) (UniProt Q9NZQ7). As to the kind of experiment: SPR. (SPR reads the build-up and loss of mass on a sensor chip optically.)
Sequence of UniProt Q9NZQ7 (Q9NZQ7 19-238): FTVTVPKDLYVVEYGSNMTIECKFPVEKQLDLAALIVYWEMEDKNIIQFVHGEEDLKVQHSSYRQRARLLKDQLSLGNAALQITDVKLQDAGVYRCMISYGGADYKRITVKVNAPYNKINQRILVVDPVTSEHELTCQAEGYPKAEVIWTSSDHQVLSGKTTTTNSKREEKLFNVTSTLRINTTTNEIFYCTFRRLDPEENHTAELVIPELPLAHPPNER

On to “MVF-PD-1 (92–110) (from UniProt P69353 288-302) (peptide)”, for which the response (RU) came to 110 RU. The figure for “MVF-PD-1 (45–64) (from UniProt P69353 288-302) (peptide)” is 110 RU; for “MVF-PD-1 (73–90) (from UniProt P69353 288-302) (peptide)” it is 110 RU. For “MVF-PD-1 (32–50) (from UniProt P69353 288-302) (peptide)” the value was 11 RU.
